The record followed here is US20240254206A1 (ROCKEFELLER UNIVERSITY, published 2024).

The target of this experiment is 2CC-core. Kind of experiment: SPR, antigen on chip, IgG injected.

B1: 3BNC55 (antibody, V domains shown)
VH: QVQLVQSGTAVKRPGASVRVSCQASGYTFTDYFIYWWRQAPGQGLEWLGWINPLTSQPSYPSRFQGRLTLTRDTFDEMLYMDLRGLRSDDTGIYFCARRHSDYCDFDIWGSGTQIIVSS
VL: DIQMTQSPSSLSASVGDKVTITCQTSAGYLNWYQQRRGRAPKLLMYDGSRLVTGVPSRFSGRRWGTQYNLTIGSLQPEDIATYYCQVYEFFGPGTRLDLKS
notes: also called 3BNC55HC; 3BNC55KC
A word on the Kd: it is the free concentration of one partner at which half of the binding sites on the other are occupied at equilibrium, for simple one-to-one binding. Take B1: the affinity, expressed as Kd, was 25.7 nM.

B2: 3BNC66 (antibody, V domains shown)
VH: QVQLVQSGAALKKPGASLRISCQTYGYKFTDHLIYWWRQAPGQGLEWIGWIKPETGQPSYSYRFQGRVSLTRDTFEEIAFMDLRGLRSDDTAIYFCARRHTDYCVFDVWGSGSQIIVSS
VL: DIQMTQSPSSLSASVGDTVTITCQTNKGYLNWYQQRRGRAPKLLMYDGSKLVTGVPSRLSGRRWGTQYNLTIGSLQPEDIATYYCQVYEFFGPGTRLDLKR
notes: also called 3BNC66HC; 3bnc66kc
By koff is commonly meant a measure of how fast the partners let go of each other. Read a low koff as slow dissociation. Broadly, the kon is the second-order rate constant of association. A low value points to slower complex formation. The molecule B2 yielded a Kd of 33.6 nM, a koff of 0.00133 s⁻¹ and a kon of 39600 M⁻¹ s⁻¹.

B3: 3BNC156 (antibody, V domains shown)
VH: QVQLVQSGAALKKPGASLRISCQTYGYKFTDHLIYWWRQAPGQGLEWIGWIKPETGQPSYSYRFQGRVSLTRDTFEEIVFMDLRGLRSDDTAIYFCARRHSDYCDFDVWGGGSQVIVSS
VL: DIQMTQSPSSLSASVGDTVTITCQTNKGYLNWYQQKRGRAPKLLMYDGSKLVTGVPSRLSGRRWGTQYNLTIGSLQPEDIATYYCQVYEFFGPGTRLDLKR
notes: also called 3BNC156HC; 3bnc156kc
As to B3, binding was put at a Kd of 81.2 nM, the koff was 0.00153 s⁻¹ and the kon came to 18800 M⁻¹ s⁻¹.

B4: 1B2530 (antibody, V domains shown)
VH: QVRLEQSGAAMRKPGASVTLSCQASGYNFVKYIIHWVRQKPGLGFEWVGMIDPYRGRPWSAHKFQGRLSLSRDTSMEILYMTLTSLKSDDTATYFCARAEAASDSHSRPIMFDHWGQGSRVTVSS
VL: QSALTQPPSASGAPGQRVTISCSGGPSNVGGNYVYWYRQFPGTAPTLLILRDDQRPSGVPDRFSASKSGNSASLAISGLRPDDEGFYFCATYDSDGSIRLFGGGTALTVLS
notes: also called LSSB2530HC; LSSB2530LC
B4 returned a Kd of 5.9 nM, a koff of 0.000402 s⁻¹ and a kon of 68300 M⁻¹ s⁻¹.

B5: 12A21 (antibody, V domains shown)
VH: SQHLVQSGTQVKKPGASVRVSCQASGYTFTNYILHWWRQAPGQGLEWMGLIKPVFGAVNYARQFQGRIQLTRDIYREIAFLDLSGLRSDDTAVYYCARDESGDDLKWHLHPWGQGTQVIVSP
VL: DIQMTQSPSSLSASVGDRVTINCQAGQGIGSSLNWYQKKPGRAPKLLVHGASNLQRGVPSRFSGSGFHTTFTLTISSLQPDDVATYFCAVFQWFGPGTKVDIKR
notes: also called 12A21HC; 12a21kc
B5 had a Kd of 1.81 nM, a koff of 0.00033 s⁻¹ and a kon of 182000 M⁻¹ s⁻¹.

B6: 3BNC60 (antibody, V domains shown)
VH: QVHLSQSGAAVTKPGASVRVSCEASGYKISDHFIHWWRQAPGQGLQWVGWINPKTGQPNNPRQFQGRVSLTRQASWDFDTYSFYMDLKAVRSDDTAIYFCARQRSDFWDFDVWGSGTQVTVSSASTKG
VL: DIQMTQSPSSLSARVGDTVTITCQANGYLNWYQQRRGKAPKLLIYDGSKLERGVPARFSGRRWGQEYNLTINNLQPEDVATYFCQVYEFIVPGTRLDLKRTVAA
notes: also called 3BNC60HC; 3BNC60KC
B6 came in with a Kd of 54.5 nM, a koff of 0.00164 s⁻¹ and a kon of 30200 M⁻¹ s⁻¹.

B7: 3BNC117 (antibody, V domains shown)
VH: QVQLLQSGAAVTKPGASVRVSCEASGYNIRDYFIHWWRQAPGQGLQWVGWINPKTGQPNNPRQFQGRVSLTRHASWDFDTFSFYMDLKALRSDDTAVYFCARQRSDYWDFDVWGSGTQVTVSSASTKG
VL: DIQMTQSPSSLSASVGDTVTITCQANGYLNWYQQRRGKAPKLLIYDGSKLERGVPSRFSGRRWGQEYNLTINNLQPEDIATYFCQVYEFVVPGTRLDLKRTVAAPSVFIFPPSD
notes: also called 3BNC117HC; 3bnc117kc
For B7, binding was put at a Kd of 36.8 nM.

B8: 8ANC131 (antibody, V domains shown)
VH: QGQLVQSGGGLKKPGTSVTISCLASEYTFNEFVIHWIRQAPGQGPLWLGLIKRSGRLMTAYNFQDRLRLRRDRSTGTVFMELRGLRPDDTAVYYCARDGLGEVAPDYRYGIDVWGQGSTVIVTA
VL: EIVLTQSPATLSLSPGERATLSCRASQGLNFVVWYQQKRGQAPRLLIHAPSGRAPGVPDRFSARGSGTEFSLVISSVEPDDFAIYYCQEYSSTPYNFGPGTRVDRKR
notes: also called 8ANC131HC; 8ANC131KC
B8 returned a Kd of 66.1 nM, a koff of 0.00323 s⁻¹ and a kon of 48800 M⁻¹ s⁻¹.

B9: 8ANC134 (antibody, V domains shown)
VH: QGQLVQSGGGVKKPGTSVTISCLASEYTFNEFVIHWIRQAPGQGPVWLGLIKRSGRLMTSYKFQDRLSLRRDRSTGTVFMELRGLRLDDTAVYYCARDGLGEVAPAYLYGIDAWGQGSTVIVTS
VL: EIVLTQSPATLSLSPGERATLSCRASQGLNFVVWYQQKGGQAPRLLIHGPTDRAPGVPDRFSARGSGTEFSLVISSVEPDDFALYYCQEYSSTPYNFGPGTRVDRKR
notes: also called 8ANC134HC; 8ANC134KC
As to B9, the Kd amounted to 46.1 nM, the koff came out at 0.000957 s⁻¹ and the kon stood at 20800 M⁻¹ s⁻¹.

B10: 1NC9 (antibody, V domains shown)
VH: QVRLVQSGAQLKKPGASVTVSCEASGYNFVNYIINWVRQTPGRSFEWVGMIDPRRGRPWSAQKFQGRLTLTRDIDSEKLYMHLSGLRGDDTAVYYCARQDSDFHDGHGHTLRGMFDSWGQGSPVTVSS
VL: QVLSVSGTPGQRVIISCSGTSSNVGGNLVSWYQHLPGAAPRLLIHRDDQRPSGVPDRFSGSKSGNSASLVISGLRSDDEADYFCAAYDSTFSLPVFGGGTRLTVLS
notes: also called LSSNEC9HC; LSSNEC9LC
B10 showed a Kd of 4.61 nM, a koff of 0.000236 s⁻¹ and a kon of 51100 M⁻¹ s⁻¹.

B11: NIH45-46 (antibody, V domains shown)
VH: QVRLSQSGGQMKKPGESMRLSCRASGYEFLNCPINWIRLAPGRRPEWMGWLKPRGGAVNYARKFQGRVTMTRDVYSDTAFLELRSLTSDDTAVYFCTRGKYCTARDYYNWDFEH
VL: EIVLTQSPATLSLSPGETAIISCRTSQSGSLAWYQQRPGQAPRLVIYSGSTRAAGIPDRFSGSRWGADYNLSISNLESGDFGVYYCQQYEFFG
In turn, B11 yielded a Kd of 4.4 nM, a koff of 0.000494 s⁻¹ and a kon of 112000 M⁻¹ s⁻¹.

B12: 12A12 (antibody, V domains shown)
VH: SQQLVQSGTQVKKPGASVRISCQASGYSFTDYVLHWWRQAPGQGLEWMGWIKPVYGARNYARRFQGRINFDRDIYREIAFMDLSGLRSDDTALYFCARDGSGDDTSWHLDPWGQGTLVIVSA
VL: DIQMTQSPSSLSASVGDRVTITCQAGQGIGSSLQWYQQKPGKAPKLLVHGASNLHRGVPSRFSGSGFHTTFSLTISGLQRDDFATYFCAVLEFFGPGTKVEIKR
notes: also called 12A12HC; 12a12kc
In the case of B12, the Kd was found to be 0.0269 nM, the koff is 1.7e-06 s⁻¹ and the kon was found to be 63300 M⁻¹ s⁻¹.

B13: 8ANC195 (antibody, V domains shown)
VH: QIHLVQSGTEVKKPGSSVTVSCKAYGVNTFGLYAVNWVRQAPGQSLEYIGQIWRWKSSASHHFRGRVLISAVDLTGSSPPISSLEIKNLTSDDTAVYFCTTTSTYDKWSGLHHDGVMAFSSWGQGTLISVSA
VL: DIQMTQSPSTLAASIGGTVRVSCRASQSITGNWVAWYQQRPGKAPRLLIYRGAALLGGVPSRFSGSAAGTDFTLTIGNLQAEDFGTFYCQQYDTYPGTFGQGTKVEVKR
notes: also called 8ANC195HC; 8ANC195KC
Take B13: binding was put at a Kd of 54.7 nM, the koff worked out at 0.00132 s⁻¹ and the kon came to 24100 M⁻¹ s⁻¹.
